Laboratory results as given in paper PMC6623548, “Targeting Mannitol Metabolism as an Alternative Antimicrobial Strategy Based on the Structure-Function Study of Mannitol-1-Phosphate Dehydrogenase in Staphylococcus aureus” (mBio, 2019).

Legend:
[1] = biological target: T1, mannitol-1-phosphate dehydrogenase (SaM1PDH) (Staphylococcus aureus, UniProt Q2FEX4); assay: F6P reductase activity, NADH absorbance, Lineweaver-Burk kinetics; assay type: biochemical
T1 construct: gene mtlD

[2] = test system: O=C(CO)[C@@H](O)[C@H](O)[C@H](O)COP(=O)(O)O; assay: purified protein; settings: NADH active site; phosphate moiety at Arg287 and Arg294 (docking, supported by mutants)
[3] = test system: O=P(O)(O)OC[C@@H](O)[C@@H](O)[C@H](O)[C@H](O)CO; assay: purified protein; settings: NAD+ active site; phosphate moiety at Arg287 and Arg294 (docking, supported by mutants)

Molecule	Ki [1] [µM]	Km [2] [µM]	Km [3] [µM]
Cc1c(O)c(O)cc2c1CC=C1[C@@]2(C)CC[C@@]2(C)[C@@H]3C[C@](C)(C(=O)O)CC[C@]3(C)CC[C@]12C [DHCL, dihydrocelastrol]	4		
mannitol-1-phosphate dehydrogenase (SaM1PDH) (Staphylococcus aureus subsp. aureus USA300)		88.6	188
